Laboratory results from the supplement of paper PMC9170038.

Test system: MS2 coat protein
Experiment: apparent KD of MS2 coat protein; designed switch direction (-1 OFF switch, 1 ON switch): 1; higher = weaker reporter binding
Procedure, shortened: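 Each step of the titration lasted 0.8–1.5 h at the lowest concentration and 10–20 min at the highest. The protein, SNAP-549-labelled MS2 coat protein, went from 0.7 or 1.5 nM doubling to 3 µM over RNA switches transcribed on Illumina chips by stalled E. coli RNA polymerase. Normalised cluster fluorescence was curve-fitted, and the per-design median over clusters is given as apparent KD.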

[1] = input ligand: microRNA oligo, concentration not stated
[2] = Eterna round: R95, input ligand: microRNA oligo, concentration not stated
[3] = Eterna round: R95, input ligand: FMN 200 uM
[4] = Eterna round: R95, input ligand: none

Sequence	apparent KD of MS2 coat protein (input ligand: FMN 200 uM) [nM]	apparent KD of MS2 coat protein [1] [nM]	apparent KD of MS2 coat protein (input ligand: none) [nM]	apparent KD of MS2 coat protein [2] [nM]	apparent KD of MS2 coat protein [3] [nM]	apparent KD of MS2 coat protein [4] [nM]
CGCCAGAGAACAGGAUAUGGGCCGCGGCCUAAGGGCUGCUAACUCACAUGAGGAUCACCCAUGUCCCAGAAGGGUUCCUGGCUG [Gexeso] (Eterna round: R96, puzzle: Same State NG 2)	602	31.4	45.8			
GCCAUCGUAUGAGGAUAUGGCACCGUUUCGGUGCCAGAAGGCAUGUCAAUUGACAUGAGGAUCACCCAUGUAUUAUCGAUGGCA [JL Fiskers NG1ss - 33 mod 6] (Eterna round: R96, puzzle: Same State NG 1)	99.8	485	925			
GGAAGGAGGUCAGGAUAUGAACGGAAGGUACAUGAGGAUCACCCAUGUUACGGAGGAAGGAAACGUUAGAAGGGACAAGGAAGG [AK SSNG2-V2-3] (Eterna round: R96, puzzle: Same State NG 2)	14.8	12.8	18.1			
UGUUGUAUUACAGGAUAUCUAGUAUUUUAAUUUAGAGAAGGGUAUUCACAUGAGGAUCACCCAUGUAUAUACGAGGAAGUUGUG [JMF's solution 43] (Eterna round: R96, puzzle: Same State NG 1)		38.6				
UUUAUACAUGAGGAUCACCCAUGUCAACAAAGUCGAGGAUAUGGGCAUAUUAUCUUAUUUCCAGAAGGCGAAUUCU [salish99_ss1_r3_090] (puzzle: Same State 1)				158		
UUGCGGGCUUGAGGAUAUUGAGUACAUAUGUUUAACAUGAGGAUCACCCAUGUGGGUUGCGGUGUCGAGAAGGUGGCUUCCUGC [salish99_SSNG2_r04_814] (Eterna round: R96, puzzle: Same State NG 2)	99.2	76.7	91.5			
AGUCCAGCCUGAGCUGGACAAAAGCAUGUACAUGAGGAUCACCCAUGUCAUGUACAAGCUUUUUGCUCGUCUUAAAA [JL zipper 46] (Eterna round: R96, puzzle: Sensor for hsa-mir-208a)	685	13	677			
GGUAGGUUACUACCAGACAUGAGGAUCACCCAUGUAAGUGGGAAGGAUAUGGUACCGUUUCGGUACCAGAAGGUCCUAAAUGAG [JL SSNG3 1.46] (Eterna round: R96, puzzle: Same State NG 3)	332	1650	1220			
GAUACACAUGAGGAUCACCCAUGUCGUAUGACAUGAGGAUAUGUACAGACUUCGGUCUGUACAGAAGGCAUGUGUC [SS1 - 1011 Omei Mod 2] (puzzle: Same State 1)				48.3		
GUAGCAUACCGAGGAUAUUCAUAUUAAAUACAUGAGGAUCACCCAUGUAAGGCCAAAAGGCCUUGGGAGAAGGCGGAAUGCUAC [Xeonanis - 20 Mod3] (Eterna round: R96, puzzle: Same State NG 2)	20.7	32.5	67.3			
GGUAUCGACACAGGAUAUGCUAUCCUUUGGGUAGCAGAAGGGUGGACAUGAGGAUCACCCAUGUGGGUGCCAGGGCGUGAGCCC [JL SSNG1 1.84] (Eterna round: R96, puzzle: Same State NG 1)	234	21.1	1040			
AAGAAACAUGAGGAUCACCCAUGUGAGAAUAUGGGAGGAUAUACAAGGACGUAAGUCAAGGUAGAAGGCCUAAGAA [Mat - Same State 1 - Meechl mod - D139] (Eterna round: R96, puzzle: Same State 1)		143				
UGCCAUAGUAUAUUGGUACGUGCUUUUUGACAUGAGGAUCACCCAUGUCCUCGUCAUAUGCGCAGUCCGUAGACUGC (puzzle: Sensor for hsa-mir-208a)				234	328	374
UAGUGCGUUAGAGGAUAUUCAAGGUGAAAAAAAAAUACAUGAGGAUCACCCAUGUAAAAACAUGAGGAGAAGGCUGAUGUGCUA [Omei SS(NG)2 A] (Eterna round: R96, puzzle: Same State NG 2)		38				
GGAGCUGGCACCGAGGAUAUUCAUAUUAAAACAUGAGGAUCACCCAUGUAGGCCAGAAGGCCUUGGGAGAAGGCGGAUCAGCUCG [Xeonanis - 12] (puzzle: Same State 2)				532	30.8	532
CUUUUUAAUGCAGGAUAUGAUCAACAUGAGGAUCACCCAUGUGGCGUUGUGAGUAGGGAGAGUGAUCAGAAGGGCGUCUCCUCG [SS-NG2-LRO09] (Eterna round: R96, puzzle: Same State NG 2)	43.9	38	56.6			

Sequence	apparent KD of MS2 coat protein (input ligand: FMN 200 uM) [nM]	apparent KD of MS2 coat protein [1] [nM]	apparent KD of MS2 coat protein (input ligand: none) [nM]	apparent KD of MS2 coat protein [2] [nM]	apparent KD of MS2 coat protein [3] [nM]	apparent KD of MS2 coat protein [4] [nM]
UAUCCAUAGAUAGGAUAUUAGUGAACAUGAGGAUCACCCAUGUUUUGCUUGGUUUUAAGCUAAUCUGAGAAGGAUCUUGAUGAA [SameState NG2 #6] (Eterna round: R96, puzzle: Same State NG 2)	31.5	33.3	41.6			
ACGCUCCAUGGAGGAUAUGGGCCUGCCCGGGAUACCGGGCCUAACACAUGAGGAUCACCCAUGUCCCAGAAGGCCGCUGGAGCC [Atgeenbite] (Eterna round: R96, puzzle: Same State NG 2)	19.2	62.3	98.7			
UUCCCAGCGGGAGGAUAUGGUGCCUUGUUGGUGCUAGAAGGUCCAACAUGAGGAUCACCCAUGUGGGAGUGGUCUAAUGACCUC [SS NG10LRO08] (Eterna round: R96, puzzle: Same State NG 1)	301	181	347			
GUGCUCGUGUGAGGAUAUGCUUCCGGUUCGGCUGCAGAAGGUACUAUUAUACAUGAGGAUCACCCAUGUCGCUUUUCUCCGGUG [salish99_SSNG1_r04_916] (Eterna round: R96, puzzle: Same State NG 1)	28.3	17.6	25			
GGUAGGUUACUACCAGACAUGAGGAUCACCCAUGUAAGUGGGAAGGAUAUGGUACCUUUUAGGUACCAGAAGGUCCAUAUAUUC [JL SSNG3 1.44] (Eterna round: R96, puzzle: Same State NG 3)	178	637	849			
GGUCCAGCCUGAGCUGGACAAAAGCAUGUACAUGAGGAUCACCCAUGUCAUGUACAAGCUUUUUGCUCGUCUUAAAA [Mat - Sensor - JL mod - D87] (Eterna round: R96, puzzle: Sensor for hsa-mir-208a)	586	14.2	573			
UUAAUGAUGAUAGGAUAUACAUGAGGAAUUCUCGUAGAAGGAUCAUGACAUGAGGAUCACCCAUGUAACGCUCCGUAGAGCGUA [JL SSNG1 1.15] (Eterna round: R96, puzzle: Same State NG 1)	572	385	1060			
GGCAGGUGCAGGCUUGCUUGCACCUGGAAACAUGAGGAUCACCCAUGUUUGGGACAAGCUUUGCUCCUCGUCUUAUC [JL ViennaUCT Isusreraar mod 1] (puzzle: Sensor for hsa-mir-208a)				43.1	179	232
CCGUGGUAACAUGAGGAUCACCCAUGUACAAGCUUUUUGCUCGUUGGAUCCGGCGCGCCCAUUAUGGGCGCGCCGGA [Nishu_Seq2] (puzzle: Sensor for hsa-mir-208a version 2)				16	26.2	25.6
AGAUCAUGACGAGGAUAUGGUACAUGAGGAUCACCCAUGUAUGUACCAUAACGCGUACGACGAAACCAGAAGGCGUCGUGGUCA [JL SSNG2 1.08] (Eterna round: R96, puzzle: Same State NG 2)	11.7	14.8	27			
GACAUUCUAUCUCAGGAUAUCAUGUCAAAGACAUGAGGAUCACCCAUGUACCAGGAAACUGGUUAUGAGAAGGGAGAUAGAAUGG [Mat - Same State 2 - Mod - D47] (puzzle: Same State 2)				119	122	221
GUGGUCAGACAUGAGGAUCACCCAUGUGGAAUAAAUAACGGACAGGAUAUUUAAUAUAGGAUAUAGAAGAAGGGUUGAUUGGUG (Eterna round: R96, puzzle: Same State NG 3)	104	77.9	90.8			
GUUACAUGAGGAUCACCCAUGUAUGUGUGGGAGUAAGUGUCUUAGGAUAUCUGUUAUUUAAAUUAAGAGAAGGAAGAUUGUUGU [JMF's solution 8] (Eterna round: R96, puzzle: Same State NG 3)	120	89.2	110			
GUAUCUACAGGUUUCUUUGCUCGUCUGAUACAUGAGGAUCACCCAUGUUAUAGCCCUGUGCUUGCGCAGGGCUGAGG [Sensor for hsa-mir-208a ( MOD of Tearor v.3 )] (puzzle: Sensor for hsa-mir-208a)				36.6	34.1	37
UGGCUCAGACGAGGAUAUGGUCAUGGCGCUUCGGCGCAUACAUGAGGAUCACCCAUGUAGGGUGAUCAGAAGGUGUCUGAGCCA [SSNG2/9-B2] (Eterna round: R96, puzzle: Same State NG 2)	210	827	1100			
